# From the nanobody polyreactivity screen of Harvey et al. (2022)
# Experiment: yeast display, Sf9 membrane polyspecificity reagent, FACS + sequencing; frameworks hold sequencing errors
# Outline: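 Genes from sorted yeast were amplified by colony PCR, read by MiSeq 2 × 250 sequencing and filtered on CDR length. These cells carried a synthetic nanobody library in Saccharomyces cerevisiae BJ5465 and were sorted by FACS into low and high (top ~1%) gates on anti-HA and streptavidin fluorescence. Polyreactivity is labelled according to the gate of origin.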
row,Sequence,polyreactivity (PSR sort gate)
1,QVQLVESGGGLVQAGGSLRLSCAASGRIFYGNAMGWYRQAPGKVRELVAAISSGTSTNYADSVKGRFTISRDNAKNPVYLQMNSLKPEDTAVYYCAAGSYSRYLYSLYFDFDYWGQGTQVTVSS,low polyreactivity
2,QVQLVESGGGLVQAGGSLRLSCAASGRIFYGNARGWYRQAPGKERELVATISSSGGRTPYADSVKGRFTISRDNAKNTVYLQMNSLKPEDTAVYYCAAQGYWTGYDYWGQGTQVTVSS,high polyreactivity
3,QVQLVESGGGLVQAGGSLRLSCAASGRIFYGNVMGWYRQAPGKERELVAAITRSGGSTYYADSVKGRFTISRDYAKNTVYLQMNSLKPEDTAVYYSNDALVSRDRSYEYWGQGTQVTVSS,high polyreactivity
4,QVQLVESGGGLVQAGGSLRLSCAASGRIFYGYAMGWYIQAPGKERELVAAITYIGGTYYADSVKGRFTISRDNAKNTVYLQMNSQKPEDTSVYYCASEPFYNFVYYTYPYWYDYWGQGTQVTVSS,low polyreactivity
5,QVQLVESGGGLVQAGGSLRLSCAASGRIFYGYAMGWYRQAPGKERELVAAISRGGTRTFYADSVKGRFTISRDNAKNTVYLQMNSLKPEDTAVYYCAADPGPHRYSYDYWGQGTQVTVSS,high polyreactivity
6,QVQLVESGGGLVQAGGSLRLSCAASGRIFYGYAMGWYRQAPGKERELVAAISSGGITYYADSVKGRFTISRDNAKNTVYLQMNSLKPEDTAVYYCAATVLGDYEYWGQGTQVTVSS,low polyreactivity
7,QVQLVESGGGLVQAGGSLRLSCAASGRIFYGYAMGWYRQAPGKERELVAASRYSGGSTYADSVKGRFTISRDNAKNTVFLQMNSLKPEVTAVYYCAAGDAPYVAWDQYQDNVFRYDYWGQGTQVTVSS,low polyreactivity
8,QVQLVESGGGLVQAGGSLRLSCAASGRIFYGYAMGWYSQAPGKEREVVATITGIGGSTYADSVKGRFTISRDHAKNTVYLQMNSLKPEDTAVYYCNAERGVYWGRYPYKYDYWGQGTQVTVSS,low polyreactivity
9,QVQLVESGGGLVQAGGSLRLSCAASGRIFYGYTMGWYRQAPGKERELVAAISSSGGSTYYADSVKGRFTISRDNAKNTVYLQMNSLIPEDTAVYYCAAYVPYSPYHVEFNYWGQGTQVTVSS,high polyreactivity
10,QVQLVESGGGLVQAGGSLRLSCAASGRIFYGYTMGWYRQAPGKERELVADISWRGGSTSYADSVKGRFTISRDNAKNTVYLQMNSLKPEDTAVYYCAKRYRPESLYPFYNPYDYWGQGTQVTVSS,low polyreactivity
11,QVQLVESGGGLVQAGGSLRLSCAASGRIFYGYVMGWYRQAPGKERELVAAITWSGSRTYYADSVKGRFTISRDNAKNTVYLQMNSLKPEDTAVYYCAARIPSDGYYYWGQGTQVTVSS,high polyreactivity
12,QVQLVESGGGLVQAGGSLRLSCAASGRIFYINAMGWSRQAPGKERELVAAITEGGVSTYYADSVKGRFTISRDNAKNTVYLQMNSLKPEDTAVYYCNTTGGPDGIVIYEYWGQGTQVTVSS,low polyreactivity
13,QVQLVESGGGLVQAGGSLRLSCAASGRIFYINAMGWYRQAPGKERELVAAITEGGVSTYYADSVKGRFTISRDNAKNTVYLQMNSLKPEDTAVYYCNTTGGPDGIVIYEYWGQGTQVTVSS,low polyreactivity
14,QVQLVESGGGLVQAGGSLRLSCAASGRIFYINAMGWYRQAPGKERELVASITGSGGRTYYADSVKGRFTISRDNAKNTVYLQMNSLKPEDTAVYYCNADLYVGYLYYLYDYWGQGTQVSVSS,low polyreactivity
15,QVQLVESGGGLVQAGGSLRLSCAASGRIFYINTMGWYRQAPGKERELVAAISRRGGSTYYADSVKGRFTISRDNAKNTVYLQMNSLKPEDTAVYYCAARDQYGPGYRSESLDSWGQGTQVTVSS,low polyreactivity
16,QVQLVESGGGLVQAGGSLRLSCAASGRIFYIYAMGWYRQAPGKERELVAAISTGGGGTYYADSVKGRFTISRDNAKNTVYLQMNSLKPEDTAVYYCAVDSKPRYREFDYWGQGTQVTVSS,high polyreactivity

row,Sequence,polyreactivity (PSR sort gate)
1,QVQLVESGGGLVQAGGSLRLSCAASGRIFYIYAMGWYRQAPGKERELVATISVSGGRTYYADSVKGRFTISRDNAKNTVYLHMNSLKPEDTAVYYCAKEGRFNIHKWYDYWGQGTQVTVSS,low polyreactivity
2,QVQLVESGGGLVQAGGSLRLSCAASGRIFYIYTMGWYILAPGKERELVAGITRAGSTNYADSVKGRFTISRDNAKNTVYLQMNSLKPEDTAVYYSNAYIWIYGFDYCGQGTQVTVSS,high polyreactivity
3,QVQLVESGGGLVQAGGSLRLSCAASGRIFYKNVMGWYRPAPGKERELVATITRRGGRTFYADSVKGRFTISRDNAKNTVYLQMNSLKPEDTAVYFCNVLPQPGKESTGDDYWGQGTQVTVSS,high polyreactivity
4,QVQLVESGGGLVQAGGSLRLSCAASGRIFYKSAMGWSRQAPGKEREWVAAITTSGGSTYYADSVKGRFTISRDNAKNTVYLQMNSLKPEDTAVYYCAARSAYGTQRLYYWGQGTQVTVSS,high polyreactivity
5,QVQLVESGGGLVQAGGSLRLSCAASGRIFYKYAMGWYRQAPGKERELVAGITRSGANTYYADSVKGRFTISRDNAKNTVYLQMNSLKPEDTAVYYCAVYIPRGGRSGYWGQGTQVTVSS,high polyreactivity
6,QVQLVESGGGLVQAGGSLRLSCAASGRIFYLNAMGWYRQAPGKERELVAAMSGSTGSTYYADSVKGRFTISRDNAKNTVYLQMNSLKPEDTAVYYCNAVLSSNTKWRYPGDYWGQGTQVTVSS,low polyreactivity
7,QVQLVESGGGLVQAGGSLRLSCAASGRIFYLNDMGWYRQAPGKERELVATITSTGGSTYYADSVKGRFTISRDNAKNTVYLQMNSLKPEDTAVYYCAAGGWRAYSYTARYDYWGQGTQVTVSS,low polyreactivity
8,QVQLVESGGGLVQAGGSLRLSCAASGRIFYLNVMGWYRQAPGKERELVAAITRRDVTTYADSVKGRFTISRDNAKNTVYLQMNSLKPEDTAVYYCNAVYYNRIGFDYWGQVTQVTVSS,low polyreactivity
9,QVQLVESGGGLVQAGGSLRLSCAASGRIFYLYAMGWYRQAHGKERELVATINTSGGITYYADSVKGRFTISLDNAKNTVYLQLNSLIPEDTAVYYCNADWEWQYFYFRPGGYWGQGTQETVSS,low polyreactivity
10,QVQLVESGGGLVQAGGSLRLSCAASGRIFYLYAMGWYRQAPGKERELVAAITGGGSTSYADSVKGRFTISRDNAKNTVYLQMNSLKPEDTAVYYCATDRLTYTKYGYWGQGTQVTVSS,low polyreactivity
11,QVQLVESGGGLVQAGGSLRLSCAASGRIFYNYAMGWYRQAPGKERELVAAITRRAGRTYYADSVKGRFTISRDNSKNTVYLQMNSLKPEDTAVYYCAKDEPGSSRVLYDSWGQGTQVTVSS,low polyreactivity
12,QVQLVESGGGLVQAGGSLRLSCAASGRIFYNYAMGWYRQAPGKERELVASISNSGGSTYYADSVKGRFTISRDNAKNTVYLQMNSLKPEDTAVYYCARRYYYYTTYRYDYWGQGTQVSVSS,high polyreactivity
13,QVQLVESGGGLVQAGGSLRLSCAASGRIFYPNAMGWYRQAPGKERELVAAITSGGRTYYADSVKGRFTISRDNAKNTVYLQMNSLKPEDTAVYYCNARYSFWRSGPGYQGVDYWGQGTQVTVSS,high polyreactivity
14,QVQLVESGGGLVQAGGSLRLSCAASGRIFYPYAMGWYRQAPGKEREFVATITASGGSTYYADSVKGRVTISRDNAKNTVYFQMNSLKPEDTAVYYCAADDPGYYQVEYWGQGTQVTVSS,high polyreactivity
15,QVQLVESGGGLVQAGGSLRLSCAASGRIFYPYAMGWYRQAPGKERELVAAIRGGDSTNYADSVKGRFTISRDNAKNTVYLQMNSLKPEDTAVYYCAAVLRYVVRPYSYWSGGYDYWGQGTQVTVSS,high polyreactivity
